Results published in paper PMC8546121 (Nature Communications, 2021).

B1: MACV MBP-Z fusion protein (full-length wild-type MACV Z protein) (natural protein)
chain: MGNCNKPPKRPPNTQTSAAQPSAEFRRTALPSLYGRYNCKCCWFADTNLITCNDHYLCLRCHQTMLRNSELCHICWKPLPTSITVPVEPSAPPP

Key:
[1] = target: MACV MBP-Z fusion protein (full-length wild-type MACV Z protein) (Machupo virus) (UniProt Q6IUF9); assay: […] (20 mM Tris-HCl pH 8.0, 500 mM NaCl, 2 mM DTT), […]
[2] = target: Machupo virus (MACV) L protein (Machupo virus, UniProt Q6IUF8 1-2209); assay: as above; conditions: both partners purified
Sequence of Machupo virus (MACV) L protein (Q6IUF8 whole entry): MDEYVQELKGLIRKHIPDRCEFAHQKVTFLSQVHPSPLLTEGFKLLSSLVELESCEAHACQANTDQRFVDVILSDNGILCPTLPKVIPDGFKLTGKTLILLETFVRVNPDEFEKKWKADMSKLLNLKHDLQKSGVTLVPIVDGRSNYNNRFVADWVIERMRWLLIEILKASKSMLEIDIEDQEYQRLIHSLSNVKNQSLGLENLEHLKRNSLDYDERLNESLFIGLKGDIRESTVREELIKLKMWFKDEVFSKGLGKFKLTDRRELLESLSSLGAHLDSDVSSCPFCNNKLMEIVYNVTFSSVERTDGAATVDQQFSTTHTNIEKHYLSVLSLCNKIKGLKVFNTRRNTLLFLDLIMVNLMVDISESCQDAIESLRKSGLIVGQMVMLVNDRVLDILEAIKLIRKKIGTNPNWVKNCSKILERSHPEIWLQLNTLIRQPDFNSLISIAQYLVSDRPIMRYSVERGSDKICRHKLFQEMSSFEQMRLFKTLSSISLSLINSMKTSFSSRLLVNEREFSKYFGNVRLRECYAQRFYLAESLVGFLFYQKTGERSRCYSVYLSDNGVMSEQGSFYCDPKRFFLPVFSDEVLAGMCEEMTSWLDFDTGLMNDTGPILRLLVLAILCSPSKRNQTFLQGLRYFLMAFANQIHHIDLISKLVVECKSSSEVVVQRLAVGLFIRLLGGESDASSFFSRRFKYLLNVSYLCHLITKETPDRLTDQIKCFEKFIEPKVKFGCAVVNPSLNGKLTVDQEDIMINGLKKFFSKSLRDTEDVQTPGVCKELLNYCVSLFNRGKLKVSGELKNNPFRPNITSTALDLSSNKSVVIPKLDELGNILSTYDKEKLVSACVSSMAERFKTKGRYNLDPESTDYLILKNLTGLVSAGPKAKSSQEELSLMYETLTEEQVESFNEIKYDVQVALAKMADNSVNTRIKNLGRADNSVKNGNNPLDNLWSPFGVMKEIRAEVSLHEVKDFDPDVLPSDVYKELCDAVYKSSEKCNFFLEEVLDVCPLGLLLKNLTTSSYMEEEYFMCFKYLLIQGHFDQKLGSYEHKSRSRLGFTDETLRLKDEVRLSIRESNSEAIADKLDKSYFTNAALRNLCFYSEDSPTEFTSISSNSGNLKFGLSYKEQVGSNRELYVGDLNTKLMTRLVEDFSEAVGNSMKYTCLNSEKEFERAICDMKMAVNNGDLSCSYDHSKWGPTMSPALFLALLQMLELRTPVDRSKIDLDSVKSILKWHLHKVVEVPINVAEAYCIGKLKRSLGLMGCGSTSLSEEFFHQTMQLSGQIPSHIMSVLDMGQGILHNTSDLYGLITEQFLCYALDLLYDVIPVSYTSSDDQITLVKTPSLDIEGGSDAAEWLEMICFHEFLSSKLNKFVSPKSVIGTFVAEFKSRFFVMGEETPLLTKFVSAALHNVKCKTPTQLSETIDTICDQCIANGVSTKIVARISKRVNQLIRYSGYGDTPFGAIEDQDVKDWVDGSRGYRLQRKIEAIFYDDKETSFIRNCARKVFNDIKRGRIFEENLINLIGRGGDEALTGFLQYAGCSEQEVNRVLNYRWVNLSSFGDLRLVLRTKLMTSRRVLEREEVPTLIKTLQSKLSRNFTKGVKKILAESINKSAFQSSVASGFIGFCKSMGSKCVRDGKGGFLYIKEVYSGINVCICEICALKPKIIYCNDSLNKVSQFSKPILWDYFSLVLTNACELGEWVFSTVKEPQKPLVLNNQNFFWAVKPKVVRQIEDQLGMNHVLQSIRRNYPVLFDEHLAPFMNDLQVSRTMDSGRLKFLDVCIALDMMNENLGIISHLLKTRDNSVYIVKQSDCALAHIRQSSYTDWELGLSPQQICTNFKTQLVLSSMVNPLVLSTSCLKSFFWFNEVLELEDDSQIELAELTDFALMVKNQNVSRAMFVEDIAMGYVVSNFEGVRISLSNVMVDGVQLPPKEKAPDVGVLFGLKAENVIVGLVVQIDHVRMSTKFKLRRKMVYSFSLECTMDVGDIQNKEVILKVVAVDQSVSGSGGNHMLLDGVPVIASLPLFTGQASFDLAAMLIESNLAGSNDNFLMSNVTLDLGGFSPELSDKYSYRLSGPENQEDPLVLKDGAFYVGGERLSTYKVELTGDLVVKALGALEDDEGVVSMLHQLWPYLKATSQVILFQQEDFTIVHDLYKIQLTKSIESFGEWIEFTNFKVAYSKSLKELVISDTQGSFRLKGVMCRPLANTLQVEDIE

Molecule | stoichiometry N [1] | binding result [2]
Machupo virus (MACV) L protein, Q6IUF8 1-2209 | 1 Z:L | –
B1 | – | binds
